# Source: the RNAGym collection of RNA variant scans (doi:10.1073/pnas.2313332121)
# This sample holds only a part of the variants without activity.
# B1: TPR 5TU (parent)
# chain: GGAUCUUCUCGAUCUAACAAAAAAGACAAAUCUGCCACAAAGCUUGAGAGCAUCUUCGGAUGCAGAGGCGGCAGCCUUCGGUGGCGCGAUAGCGCCAACGUUCUCAACUAUGACACGCAAAACGCGUGCUCCGUUGAAUGGAGUUUAUCAUG
# Variants of: B1
# Test: polymerase ribozyme fitness, log enrichment relative to wild type (log ratio); higher = more active; in vitro selection for triplet polymerase activity
# Summary of the method: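 A heterodimeric triplet polymerase ribozyme had each of its subunits mutagenized by PCR into a library, which was transcribed. One round of in vitro selection, done in triplicate, annealed each library with a biotinylated primer, its partner subunit and triplets, then incubated it frozen at −7 °C before gel excision of extended constructs, streptavidin-bead capture and RT-PCR. Fitness is the logarithm of genotype enrichment relative to wild-type enrichment, based on Illumina sequencing of inputs and outputs and inverse-variance-weighted replicate averages. A base-2 logarithm is used, and genotypes were kept only with ≥10 input reads and ≥1 read per output.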
row,Variant,polymerase ribozyme fitness (log ratio)
1,GGAUCUUCUCGAUCUAACAAAAAAGACAAAACUGCCACAAAGCUUGAGAGCAUCUUCGGAUGCAGAGGCGGCAGCCUUCGGUGGCGCGCUAGCGCCAACGUUCUCAACUAUGACACGCAAAACGCGUGCUCCGUUGAAUGGAGUUUAUCAUG [U31A A89C],-0.512
2,GGAUCUUCUCGAUCUAACAAAAAAGACAAAACUGCCACAAAGCUUGAGAGCAUCUUCGGAUGCAGAGGCGGCAGCCUUCGGUGGUGCGAUAGCGCCAACGUUCUCAACUAUGAUACGCAAAACGCGUGCUCCGUUGAAUGGAGUUUAUCAUG [U31A C85U C114U],-1.15
3,GGAUCUUCUCGAUCUAACAAAAAAGACAAAACUGCCACAAAGCUUGAGAGCGUCUUCGGAUGCAGAGGCGGCAGCCUUCGGUGUCGCGAUAGCGCCAACGUUCUCAACUAUGACACGCAAAACGCGUGCUCCGUUGAAUGGAGUUUAUCAUG [U31A A52G G84U],-0.528
4,GGAUCUUCUCGAUCUAACAAAAAAGACAAAACUGCCACAAAGCUUGACAGCAUCUUCGGAUGCAGAGGCGGCAGCCUUCGGUGGAGCGAUAGCGCCAACGUUCUCAACUAUGACACGCAAAACGCGUGCUCCGUUGAAUGGAGUUUAUCAUG [U31A G48C C85A],-2.98
5,GGAUCUUCUCGAUCUAACAAAAAAGACAAAACUGCCACAAAGCUUGAGAGCAUCUUAGGAUGCAGAGGCGGCAGCCUUCGGUGGCGUGAUAGCGCCCACGUUCUCAACUAUGACACACUAAACGCGUGCUCCGUUGAAUGGAGUUUAUCAUG [U31A C57A C87U A97C G117A A119U],1.02
6,GGAUCUUCUCGAUCUAACAAAAAAGACAAAACUGCCACAAAGCUUGAGAGCAUCUUCGGAUGCAGAGGCGGCAGCCUUCGGUGGCGCGAUCGCGCCAACGUUCUCAACUAUGACAAGCAAAACGCGUGCUCCGUUGAAUGGAGUUUAUCAUG [U31A A91C C116A],-3.88
7,GGAUCUUCUCGAUCUAACAAAAAAGACAAAACUGCCACAAAGCUUGAGGGCAUCUUCGGAUGCAGAGGCGGCAGCCUUCGGUGGCGCGAUAGCGCCAACGUUCUUAACUAUGACACGCAAAACGCGUGCUCCGUUGAAUGGAGUUUAUCAUG [U31A A49G C105U],-0.707
8,GGAUCUUCUCGAUCUAACAAAAAAGACAAAAGUGCCACAAUGCUUGAGAGCAUCUUCGGAUGCAGAUGCGGCAGCCUUCCGUGGCCCGAUAGCGCCAACGUUCUCAACUAUGACACGCAAAACGCGUGCUCCGUUGAAUGGAGUUUUUCAUG [U31A C32G A41U G67U G80C G86C A147U],≤ -4.2
9,GGAUCUUCUCGAUCUAACAAAAAAGACAAAACUGGCACAAAGCUUGAGAGCAUCUUCGGAUGCAGCGUCGGCAGCCUUCGGUGGCGCGAUAGCGCCAACGUUCUCAACUAUGACACGCAAAACGCGUGCUCCGUUGAAUGGAGUUUAUCAUG [U31A C35G A66C G68U],-4.17
10,GGAUCUUCUCGAUCUAACAAAAAAGACAAAACUGCCACAAAGCUUGAGAGGAUCUUCGGAUGCAGAGGCGGCAGCCUUCGGUGGCGCGAUAGCGCCAACGUUCUCAACUAUGACACGCAAAACGCGUGCUCCGUUGAAUGGAGUUUAUCAUG [U31A C51G],-0.943
11,GGAUCUUCUCGAUCUAACAAAAAAGACAAAACUGCCACAAAGCUUGAGAGCAUCUUCGGAUGCAGAGGCGGCAGCCUUCGGUGGCGCGAUAGAGCCAACGUUCUCAACUAUGACCCGCAAAACGCGUGCUCCGUUGAAUGGAGUUUAUCAUG [U31A C93A A115C],-1.71
12,GGAUCUUCUCGAUCUAACAAAAAAGACAAAACUGCCACAAAGCUUGAGAGCAUUUUCGGAUGCAGAGGCGGCAGCCUUCGGUUGCGCGAUAGCUCCAACGUUCUCAACUAUGACACGCAAAACACGUGCUCCGUUGAAUGGCGUUUAUCAUG [U31A C54U G83U G94U G124A A142C],-4.09
13,GGAUCUUCUCGAUCUAACAAAAAAGACAAAACUGCCACAAAGCUUGAGAGCAUCUUCGGAUGCAGAGGCGGCAGCUUUCGGUGGCGCGAUAGCGCCAACGUUCUCAACUAUGACAUGCAAAACGCGGGCUCCGUUGAAUGGAGUUUAUCAUG [U31A C76U C116U U127G],≤ -4.2
14,GGAUCUUCUCGAUCUAACAAAAAAGACAAAACUGCCACAAAGCUUGAGAGCAUAUUCGGAUGCAGAGGCGGCAGCCUUCGGUGACGCGAUAGCGCUAACGUUCUCAACUAUGACACGCAAAACGCGUGCUCUGUUGAAUGGAGUUUAUCAUG [U31A C54A G84A C96U C132U],-3.31
15,GGAUCUUCUCGAUCUAACAAAAAAGACAAAACUGCCACAAAGCUUGAGAGCAUCUUCGGAUGCAGAGGGGGCAGCCUUCGGUGGCGCGUUAGCGCGAACGUUCACAACUAUGACACGCAAAACGCGUGCUCCGUUGAAUGGAGUUUAUCAUG [U31A C69G A89U C96G U104A],-3.89
16,GGAUCUUCUCGAUCUAACAAAAAAGACAAAACUGCCACAAAGCUUGAGAGCAUCUUCGGAUGCAGAGGCGGCAGCCUUCGGUGGAGCGAUAGCGCCAACGUUCUCAACUAUGACACGCAAAACGCGUGCUCCGUUGAAUGGAGUUUAUCAUG [U31A C85A],-0.724
17,GGAUCUUCUCGAUCUAACAAAAAAGACAAAACUGCCACAAAGCUUGAGAGCAUCUUCGGAUGCAGAGGCGGCAGCUUUCGGUGGCGCGAUAGGGCCAACGUUCUCAACUAUGACACGCAAAACGCGUGCUCCGUUGAAUGGAGUUUAUCAUG [U31A C76U C93G],-2.71
18,GGAUCUUCUCGAUCUAACAAAAAAGACAAAACUGCCACAAAGCUUGAGAGCAUCUUCGGAUGCAGAGGCGGCAGCCUUCGGUGGCGCGAUAGCGCCAACGUUCUCAACUAUGACACGCAAAACGAGUGCUCCGUUGAAUGGAGUUUAUCAUG [U31A C125A],0.0765
19,GGAUCUUCUCGAUCUAACAAAAAAGACAAAACUGCCACAAAGCUUGAGAGCAUCUUCGGAUGCAGAGGCGGCAGCCUUCGGUGGCGGGAUAGCGCCAACGUUCUCAACUAUGAAACGCAAAACGCGUGCUCCGUUGAAUGGAGUUUAUCAUG [U31A C87G C114A],-4.03
